Assay results as given in publication PMC8298264, “Function of cofactor Akirin2 in the regulation of gene expression in model human neutrophil-like HL60 cells” (Bioscience Reports, 2021).

B1: sp¦Q9UQE7¦SMC3_HUMAN (protein, UniProt Q9UQE7 1-1217, looked up)
Structural maintenance of …: MYIKQVIIQGFRSYRDQTIVDPFSSKHNVIVGRNGSGKSNFFYAIQFVLSDEFSHLRPEQRLALLHEGTGPRVISAFVEIIFDNSDNRLPIDKEEVSLRRVIGAKKDQYFLDKKMVTKNDVMNLLESAGFSRSNPYYIVKQGKINQMATAPDSQRLKLLREVAGTRVYDERKEESISLMKETEGKREKINELLKYIEERLHTLEEEKEELAQYQKWDKMRRALEYTIYNQELNETRAKLDELSAKRETSGEKSRQLRDAQQDARDKMEDIERQVRELKTKISAMKEEKEQLSAERQEQIKQRTKLELKAKDLQDELAGNSEQRKRLLKERQKLLEKIEEKQKELAETEPKFNSVKEKEERGIARLAQATQERTDLYAKQGRGSQFTSKEERDKWIKKELKSLDQAINDKKRQIAAIHKDLEDTEANKEKNLEQYNKLDQDLNEVKARVEELDRKYYEVKNKKDELQSERNYLWREENAEQQALAAKREDLEKKQQLLRAATGKAILNGIDSINKVLDHFRRKGINQHVQNGYHGIVMNNFECEPAFYTCVEVTAGNRLFYHIVDSDEVSTKILMEFNKMNLPGEVTFLPLNKLDVRDTAYPETNDAIPMISKLRYNPRFDKAFKHVFGKTLICRSMEVSTQLARAFTMDCITLEGDQVSHRGALTGGYYDTRKSRLELQKDVRKAEEELGELEAKLNENLRRNIERINNEIDQLMNQMQQIETQQRKFKASRDSILSEMKMLKEKRQQSEKTFMPKQRSLQSLEASLHAMESTRESLKAELGTDLLSQLSLEDQKRVDALNDEIRQLQQENRQLLNERIKLEGIITRVETYLNENLRKRLDQVEQELNELRETEGGTVLTATTSELEAINKRVKDTMARSEDLDNSIDKTEAGIKELQKSMERWKNMEKEHMDAINHDTKELEKMTNRQGMLLKKKEECMKKIRELGSLPQEAFEKYQTLSLKQLFRKLEQCNTELKKYSHVNKKALDQFVNFSEQKEKLIKRQEELDRGYKSIMELMNVLELRKYEAIQLTFKQVSKNFSEVFQKLVPGGKATLVMKKGDVEGSQSQDEGEGSGESERGSGSQSSVPSVDQFTGVGIRVSFTGKQGEMREMQQLSGGQKSLVALALIFAIQKCDPAPFYLFDEIDQALDAQHRKAVSDMIMELAVHAQFITTTFRPELLESADKFYGVKFRNKVSHIDVITAEMAKDFVEDDTTHG
B2: sp¦Q99442¦SEC62_HUMAN (protein, UniProt Q99442 1-399, looked up)
Translocation protein SEC62: MAERRRHKKRIQEVGEPSKEEKAVAKYLRFNCPTKSTNMMGHRVDYFIASKAVDCLLDSKWAKAKKGEEALFTTRESVVDYCNRLLKKQFFHRALKVMKMKYDKDIKKEKDKGKAESGKEEDKKSKKENIKDEKTKKEKEKKKDGEKEESKKEETPGTPKKKETKKKFKLEPHDDQVFLDGNEVYVWIYDPVHFKTFVMGLILVIAVIAATLFPLWPAEMRVGVYYLSVGAGCFVASILLLAVARCILFLIIWLITGGRHHFWFLPNLTADVGFIDSFRPLYTHEYKGPKADLKKDEKSETKKQQKSDSEEKSDSEKKEDEEGKVGPGNHGTEGSGGERHSDTDSDRREDDRSQHSSGNGNDFEMITKEELEQQTDGDCEEDEEEENDGETPKSSHEKS
B3: RRRRRsp¦Q5VW38¦GP107_HUMAN (protein, UniProt Q5VW38 40-600, looked up)
Protein GPR107: RVHHLALKDDVRHKVHLNTFGFFKDGYMVVNVSSLSLNEPEDKDVTIGFSLDRTKNDGFSSYLDEDVNYCILKKQSVSVTLLILDISRSEVRVKSPPEAGTQLPKIIFSRDEKVLGQSQEPNVNPASAGNQTQKTQDGGKSKRSTVDSKAMGEKSFSVHNNGGAVSFQFFFNISTDDQEGLYSLYFHKCLGKELPSDKFTFSLDIEITEKNPDSYLSAGEIPLPKLYISMAFFFFLSGTIWIHILRKRRNDVFKIHWLMAALPFTKSLSLVFHAIDYHYISSQGFPIEGWAVVYYITHLLKGALLFITIALIGTGWAFIKHILSDKDKKIFMIVIPLQVLANVAYIIIESTEEGTTEYGLWKDSLFLVDLLCCGAILFPVVWSIRHLQEASATDGKGDSMGPLQQRANLRAGSRIESHHFAQADLELLASSCPPASVSQRAGITAAINLAKLKLFRHYYVLIVCYIYFTRIIAFLLKLAVPFQWKWLYQLLDETATLVFFVLTGYKFRPASDNPYLQLSQEEEDLEMESVVTTSGVMESMKKVKKVTNGSVEPQGEWEGAV

Tested on: human HL60 cells
Test: SWATH-MS proteomics, differential protein representation, akirin2 KO vs WT HL60 cells
Type: cell-based
Settings: akirin2 KO vs WT HL60 cells; sheet "Under-represented in KO"
How it was run: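 Three biological replicates per genotype; 150 µg protein FASP/trypsin digested; IDA library (3 µg digest); SWATH variable windows, 5 µg/sample, 3.6 s cycle; gradient 5–30% B 120 min then 30–60% B 15 min; 1% global FDR; TAS normalization.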

Molecule	Fold Change	Log (Fold Change)
B1	0.4375	-0.359
B2	0.4401	-0.3564
B3	0.4419	-0.3547
